These are literature values, as cited in publication PMC4359947.

A word on the Kd: it is the concentration at which binding is half-saturated.

The data set has as its target CAR D1 (Homo sapiens) (UniProt P78310).

Sequence of CAR D1 (P78310 20-134): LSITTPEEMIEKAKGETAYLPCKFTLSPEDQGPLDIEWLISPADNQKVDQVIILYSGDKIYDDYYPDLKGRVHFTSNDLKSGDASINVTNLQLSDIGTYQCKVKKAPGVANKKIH

Turning to CAR D1 (from UniProt P78310), the Kd was 16 µM.
